Measurements taken from the supplement of paper PMC6379048.

Experiments:
Experiment in all cases: EC50 of free RNA motif oligo competing protein binding to immobilised probe
RBM4 = target: T1, RBM4 (UniProt Q9BWF3)
T1 sequence: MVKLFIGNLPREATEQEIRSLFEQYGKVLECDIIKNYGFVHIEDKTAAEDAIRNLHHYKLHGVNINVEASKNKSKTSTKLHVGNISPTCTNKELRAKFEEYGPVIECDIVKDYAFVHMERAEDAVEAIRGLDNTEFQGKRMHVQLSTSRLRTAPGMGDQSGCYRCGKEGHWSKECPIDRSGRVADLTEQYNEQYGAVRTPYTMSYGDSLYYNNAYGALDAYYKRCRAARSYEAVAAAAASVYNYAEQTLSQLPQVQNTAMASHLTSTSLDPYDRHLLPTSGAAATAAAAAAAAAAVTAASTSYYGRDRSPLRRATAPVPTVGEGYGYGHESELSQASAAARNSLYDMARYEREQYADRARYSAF
Summary of the method: (§1)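 To obtain EC50, data were fitted with a four-parameter log-logistic model; Kd was then EC50 multiplied by a protein-dependent depletion factor. Beforehand, free RNA oligos (0 nM to 30 μM) were pre-incubated with HEK293-FT lysate (2.5 mg protein/well) for 1 h at 4°C. The lysate then spent 30 min at 4°C with the same 5′-amino-C6 oligos coupled to NHS-Sepharose beads, and bound proteins were quantified by label-free LC-MS/MS, normalised to the control.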

SRSF9 = SRSF9 (UniProt Q13242)
Chain of SRSF9 (Q13242 whole entry): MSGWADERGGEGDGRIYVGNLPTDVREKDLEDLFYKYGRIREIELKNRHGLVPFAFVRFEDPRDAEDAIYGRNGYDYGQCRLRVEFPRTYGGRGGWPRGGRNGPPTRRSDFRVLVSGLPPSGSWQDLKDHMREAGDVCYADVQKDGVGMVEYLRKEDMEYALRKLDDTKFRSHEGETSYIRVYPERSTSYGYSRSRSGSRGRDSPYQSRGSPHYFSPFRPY
Summary of the method: as §1

SSB = target: T2, SSB (UniProt P05455)
T2 sequence: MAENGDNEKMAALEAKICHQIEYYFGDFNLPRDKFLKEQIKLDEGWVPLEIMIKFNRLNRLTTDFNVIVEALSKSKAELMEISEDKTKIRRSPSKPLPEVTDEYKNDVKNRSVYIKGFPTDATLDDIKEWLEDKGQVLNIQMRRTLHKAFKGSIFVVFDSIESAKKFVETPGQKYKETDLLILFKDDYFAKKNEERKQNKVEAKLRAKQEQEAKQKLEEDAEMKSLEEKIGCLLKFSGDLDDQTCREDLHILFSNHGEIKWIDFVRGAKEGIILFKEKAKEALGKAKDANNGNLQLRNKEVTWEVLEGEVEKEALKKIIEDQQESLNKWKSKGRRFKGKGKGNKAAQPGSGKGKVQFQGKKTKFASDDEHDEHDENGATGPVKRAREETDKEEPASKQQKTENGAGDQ
Summary of the method: as §1

CHERP = target: T3, CHERP (UniProt Q8IWX8)
T3 sequence: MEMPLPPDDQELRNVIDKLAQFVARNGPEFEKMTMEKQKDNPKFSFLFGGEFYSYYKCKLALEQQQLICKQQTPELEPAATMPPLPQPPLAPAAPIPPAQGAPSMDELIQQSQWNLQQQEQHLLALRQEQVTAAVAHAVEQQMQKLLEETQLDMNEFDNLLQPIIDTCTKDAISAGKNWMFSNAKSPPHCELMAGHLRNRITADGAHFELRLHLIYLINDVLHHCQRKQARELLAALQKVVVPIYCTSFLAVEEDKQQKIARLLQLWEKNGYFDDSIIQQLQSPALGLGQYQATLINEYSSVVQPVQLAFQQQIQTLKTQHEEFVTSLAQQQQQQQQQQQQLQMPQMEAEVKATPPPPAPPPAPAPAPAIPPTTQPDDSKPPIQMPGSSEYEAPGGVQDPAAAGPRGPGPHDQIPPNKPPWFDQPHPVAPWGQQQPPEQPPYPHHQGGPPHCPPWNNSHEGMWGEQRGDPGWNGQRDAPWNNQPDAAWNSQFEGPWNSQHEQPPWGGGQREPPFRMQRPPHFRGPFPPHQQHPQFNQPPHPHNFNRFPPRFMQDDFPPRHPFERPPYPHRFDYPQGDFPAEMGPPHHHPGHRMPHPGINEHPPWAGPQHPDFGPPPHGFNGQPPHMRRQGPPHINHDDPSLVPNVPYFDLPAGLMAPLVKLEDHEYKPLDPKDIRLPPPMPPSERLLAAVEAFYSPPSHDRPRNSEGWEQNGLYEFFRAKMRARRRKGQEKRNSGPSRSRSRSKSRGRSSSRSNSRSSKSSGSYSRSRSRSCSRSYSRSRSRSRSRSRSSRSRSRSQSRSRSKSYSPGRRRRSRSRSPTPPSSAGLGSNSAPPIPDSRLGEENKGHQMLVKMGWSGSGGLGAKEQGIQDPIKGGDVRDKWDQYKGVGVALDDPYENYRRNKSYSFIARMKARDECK
Summary of the method: as §1

CSTF2 = target: T4, CSTF2 (UniProt P33240)
T4 sequence: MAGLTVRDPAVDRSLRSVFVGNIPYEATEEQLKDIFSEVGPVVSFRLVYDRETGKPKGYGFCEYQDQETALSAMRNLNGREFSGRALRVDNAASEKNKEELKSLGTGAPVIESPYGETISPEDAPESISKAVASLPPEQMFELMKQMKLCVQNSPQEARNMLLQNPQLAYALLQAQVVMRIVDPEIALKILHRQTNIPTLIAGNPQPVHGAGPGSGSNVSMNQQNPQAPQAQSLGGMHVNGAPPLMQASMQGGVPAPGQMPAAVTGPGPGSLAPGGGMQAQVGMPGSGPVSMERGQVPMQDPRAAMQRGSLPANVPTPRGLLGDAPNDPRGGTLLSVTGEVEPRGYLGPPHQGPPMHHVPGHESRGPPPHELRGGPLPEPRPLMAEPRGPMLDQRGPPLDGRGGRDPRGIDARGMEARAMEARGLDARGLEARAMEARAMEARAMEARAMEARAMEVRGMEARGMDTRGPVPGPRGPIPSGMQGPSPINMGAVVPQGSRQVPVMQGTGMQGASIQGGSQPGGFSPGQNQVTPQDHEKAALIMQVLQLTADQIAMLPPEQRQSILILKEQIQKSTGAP
Summary of the method: as §1

TSN = TSN (UniProt Q15631)
Chain of TSN (Q15631 whole entry): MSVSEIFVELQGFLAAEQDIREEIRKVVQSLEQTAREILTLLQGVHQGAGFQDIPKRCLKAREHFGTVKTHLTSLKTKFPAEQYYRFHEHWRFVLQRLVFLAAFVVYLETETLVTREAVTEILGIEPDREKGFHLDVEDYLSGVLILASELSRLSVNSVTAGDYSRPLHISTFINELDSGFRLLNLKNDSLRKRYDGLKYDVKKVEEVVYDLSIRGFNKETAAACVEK
Summary of the method: as §1

Row | Sequence | EC50 (RBM4) | EC50 (SRSF9) | EC50 (SSB) | EC50 (CHERP) | EC50 (CSTF2) | EC50 (TSN)
1 | CUGUCCU | 371 nM | 4530 nM | 2640 nM | – | – | –
2 | AAUAAA | 4160 nM | – | – | 1050 nM | 83.9 nM | 58.4 nM
3 | UAUUUAU | – | 8030 nM | 300 nM | 35.1 nM | 463 nM | 75.2 nM
